# Experimental data taken from publication PMC2866327 (2010).
# Square brackets hold non-standard residues; d marks the D form. Ends that are not written are not given here.
# B1: retro-inverso peptide hydroxamate Xaa-Arg-Tyr with Phe at P1' (peptide)
# peptide: Phe-[dR]-[dY]
# modifications: not fully specified (residue 1, N-terminus); also: retro-inverso (reversed backbone)
# Molecular target: insulin-degrading enzyme (recombinant human IDE) (human, UniProt P14735 1-1019)
binder,measurement,value
B1,Ki,20 µM
